Results on two molecules are retold here after PMC2994906 (PLoS ONE, 2010).

No end group written: not given here.

What all share (details): both partners purified
In assay [1] the target is T1, hRARα/mRXRα LBD heterodimer (human | mouse, UniProt P10276 153-421; P28700 228-467).
T1 construct: Heterodimer formed beforehand; small-molecule ligands (atRA, LG100754, AM580, BMS614, BMS649, 9-cisRA, HX531) differ between experiments and are named in the assays; also called RARα/RXRα LBD; RAR/RXR; not shown: His6, N-terminal, kept; copies: 1 + 1
T1 sequence (looked up) 1: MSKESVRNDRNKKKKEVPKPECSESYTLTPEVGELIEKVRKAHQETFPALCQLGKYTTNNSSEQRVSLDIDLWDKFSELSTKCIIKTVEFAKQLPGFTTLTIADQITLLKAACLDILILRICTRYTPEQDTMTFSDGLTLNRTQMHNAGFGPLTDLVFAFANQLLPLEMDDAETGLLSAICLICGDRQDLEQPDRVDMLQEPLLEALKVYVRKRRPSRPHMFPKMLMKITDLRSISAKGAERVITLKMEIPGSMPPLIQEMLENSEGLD
T1 sequence (looked up) 2: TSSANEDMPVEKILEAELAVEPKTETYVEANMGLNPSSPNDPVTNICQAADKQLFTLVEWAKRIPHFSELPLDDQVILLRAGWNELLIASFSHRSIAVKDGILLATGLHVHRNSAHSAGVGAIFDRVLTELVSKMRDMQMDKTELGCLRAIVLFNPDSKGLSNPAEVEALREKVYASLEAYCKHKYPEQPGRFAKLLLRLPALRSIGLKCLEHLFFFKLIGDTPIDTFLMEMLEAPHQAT
The experiment in a line: fluorescence polarisation; fluorescence anisotropy; hRARα/mRXRα LBDs added to 1 µM TAMRA-SRC-1 NR2 peptide; 20°C; 10 mM TRIS-HCl pH 7.5, 150 mM NaCl, 10 mM DTT; apparent; RAR ligand AM580, RXR apo. On the technique in general: In fluorescence polarisation assays a small probe gives low polarisation when free and higher when bound to something large.

Assay [2] deals with T1, hRARα/mRXRα LBD heterodimer. The experiment in a line: fluorescence polarisation; fluorescence anisotropy; hRARα/mRXRα LBDs added to 1 µM TAMRA-SRC-1 NR2 peptide; 20°C; 10 mM TRIS-HCl pH 7.5, 150 mM NaCl, 10 mM DTT; apparent; RAR apo, RXR ligand BMS649.
The target is the same in assay [3]. As to the kind of experiment: fluorescence polarisation; fluorescence anisotropy; hRARα/mRXRα LBDs added to 1 µM TAMRA-SRC-1 NR2 peptide; 20°C; 10 mM TRIS-HCl pH 7.5, 150 mM NaCl, 10 mM DTT; apparent; RAR ligand BMS614, RXR ligand BMS649.
Assay [4] shares this target. The experiment in a line: fluorescence polarisation; fluorescence anisotropy; hRARα/mRXRα LBDs added to a fixed concentration of TAMRA-SRC-1 NR2 peptide; 20°C; 10 mM TRIS-HCl pH 7.5, 150 mM NaCl, 10 mM DTT; apparent; RAR apo, RXR apo.
The target is the same in assay [5]. The experiment in a line: fluorescence polarisation; fluorescence anisotropy; hRARα/mRXRα LBDs added to 1 µM TAMRA-SRC-1 NR2 peptide; 20°C; 10 mM TRIS-HCl pH 7.5, 150 mM NaCl, 10 mM DTT; apparent; RAR ligand AM580, RXR ligand LG100754.
Assay [6] shares this target. As to the kind of experiment: fluorescence polarisation; fluorescence anisotropy; hRARα/mRXRα LBDs added to a fixed concentration of TAMRA-SRC-1 NR2 peptide; 20°C; 10 mM TRIS-HCl pH 7.5, 150 mM NaCl, 10 mM DTT; apparent; RAR apo, RXR ligand LG100754.
Assay [7] shares this target. The experiment in a line: fluorescence polarisation; fluorescence anisotropy; hRARα/mRXRα LBDs added to a fixed concentration of TAMRA-SRC-1 NR2 peptide; 20°C; 10 mM TRIS-HCl pH 7.5, 150 mM NaCl, 10 mM DTT; apparent; RAR ligand BMS614, RXR ligand LG100754.
Assay [8] shares this target. The experiment in a line: fluorescence polarisation; fluorescence anisotropy; hRARα/mRXRα LBDs added to 1 µM TAMRA-SRC-1 NR2 peptide; 20°C; 10 mM TRIS-HCl pH 7.5, 150 mM NaCl, 10 mM DTT; apparent; 9-cisRA on RAR and RXR; two sites, fit gave k2 identical to k1.
For assay [9] the target is unchanged. As to the kind of experiment: fluorescence polarisation; fluorescence anisotropy; hRARα/mRXRα LBDs added to 1 µM TAMRA-SRC-1 NR2 peptide; 20°C; 10 mM TRIS-HCl pH 7.5, 150 mM NaCl, 10 mM DTT; apparent; RAR ligand AM580, RXR ligand BMS649; two sites, fit gave k2 identical to k1.
The target in assay [10] is T2, human RARα LBD (residues 153-421) (human, UniProt P10276 153-421).
T2 construct: Cloned in pET15b; The purification of RARα alone is not described; also called hRARα LBD; RARα monomer; source: E. coli BL21 (DE3), purified
T2 sequence (looked up): T1 sequence (looked up) 1
The experiment in a line: ITC; SRC-1 NR2 peptide (1.3 mM) injected into 20-50 µM RAR without ligand (apo); 30°C; 20 mM Tris pH 8.0, 200 mM NaCl, 2% ethanol. For orientation: In ITC the heat of successive injections is recorded.

Assay [11] concerns the target T2, human RARα LBD (residues 153-421). The experiment in a line: ITC; SRC-1 NR2 peptide (1.3 mM) injected into 20-50 µM RAR or RAR/RXR with LG100754 in fivefold molar excess; 30°C; 20 mM Tris pH 8.0, 200 mM NaCl, 2% ethanol.
In assay [12] the target is T3, hRARα/mRXRα LBD heterodimer (human | mouse, UniProt P10276 153-421; P28700 228-467).
T3 construct: RARα in pET15b (His-tagged), RXRα in pET3a (no tag named); The heterodimer was formed beforehand by copurification; also called RAR/RXR; RARα/RXRα LBD; copies: 1 + 1
T3 sequence (looked up) 1: T1 sequence (looked up) 1
T3 sequence (looked up) 2: T1 sequence (looked up) 2
The description is as above.

Assay [13] addresses T2, human RARα LBD (residues 153-421). As to the kind of experiment: ITC; SRC-1 NR2 peptide (1.3 mM) injected into 20-50 µM RAR with an RAR agonist in fivefold molar excess (agonist not named); 30°C; 20 mM Tris pH 8.0, 200 mM NaCl, 2% ethanol.

B1: TAMRA-labeled SRC-1 NR2 peptide (686-RHKILHRLLQEGS-698) (peptide)
peptide: RHKILHRLLQEGS
modifications: also: TAMRA label, position not given here
notes: also called (TAMRA) – SRC-1 NR2 peptide; source: bought: Neosystem (Strasbourg, France)
As to B1, the Kd in assay [1] is 0.19 ± 0.02 µM; in assay [2], 0.42 ± 0.03 µM; in assay [3], 0.45 ± 0.04 µM; in assay [4], 2 ± 0.1 µM; in assay [5], 0.17 ± 0.01 µM; in [6], 2.5 ± 0.1 µM. In addition, the values for the Kd in assay [7], in assay [8] and in [9] were greater than 10 µM, 0.61 ± 0.02 µM and 0.29 ± 0.02 µM, respectively.

B2: SRC-1 NR2 peptide (676-[residues removed]-700) (peptide)
peptide: CPSSHSSLTERHKILHRLLQEGSPS
notes: The unlabelled 25-residue peptide used in ITC and ESI-MS; It is not the 13-residue TAMRA-labelled peptide of the anisotropy titrations
For B2, the Kd in assay [10] came out at 9 ± 0.4 µM; in assay [11] it was 1.6 ± 0.2 µM; in [12], 4.5 ± 0.6 µM; in assay [13] it was 1.4 ± 0.1 µM.
